This is an account of results in the supplement of paper PMC5998384.

The subject of data set [1] is HeLa Kyoto. As to the kind of experiment: solubility change mitosis vs G1/S (difference of NP-40 vs SDS log2 ratios) (log2 ratio difference); higher = more soluble in mitosis.
Data set [2] deals with HeLa Kyoto. As to the kind of experiment: thermal stability score vs G1/S (z-score of summed log2 fold changes over temperatures); higher = more thermally stable than in G1/S.
The subject of data set [3] is HeLa Kyoto. Nature of the data set: solubility in G1/S (NP-40 vs SDS abundance) (log2 ratio); higher = more soluble. The following applies: cell cycle stage: G1/S.
The mark [4] stands for this setting: cell cycle stage: early G1 (4.5 h after nocodazole release).
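For solubility change mitosis vs G1/S (difference of NP-40 vs SDS log2 ratios) in this document: synchronized HeLa Kyoto cells (double thymidine block for G1/S, nocodazole release for mitosis), protein amounts in NP-40 versus SDS lysates quantified by mass spectrometry, three biological replicates.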
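For solubility in G1/S (NP-40 vs SDS abundance) in this document: HeLa Kyoto cells arrested at G1/S by double thymidine block, proteins quantified by TMT10plex mass spectrometry in mild NP-40 versus SDS extracts, three biological replicates.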
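For thermal stability score vs G1/S (z-score of summed log2 fold changes over temperatures) in this document: synchronized HeLa Kyoto cells, proteins quantified by TMT10plex mass spectrometry, three biological replicates, mitosis taken 0.5 h after nocodazole release, G1/S directly after double thymidine block.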

In the case of “MDRAPTEQNVKLSAEVEPFIPQKKSPDTFMIPMALPNDNGSVSGVEPTPIPSYLITCYPFVQENQSNRQFPLYNNDIRWQQPNPNPTGPYFAYPIISAQPPVSTEYTYYQLMPAPCAQVMGFYHPFPTPYSNTFQAANTVNAITTECTERPSQLGQVFPLSSHRSRNSNRGSVVPKQQLLQQHIKSKRPLVKNVATQKETNAAGPDSRSKIVLLVDASQQTDFPSDIANKSLSETTATMLWKSKGRRRRASHPTAESSSEQGASEADIDSDSGYCSPKHSNNQPAAGALRNPDSGTMNHVESSMCAGGVNWSNVTCQATQKKPWMEKNQTFSRGGRQTEQRNNSQVGFRCRGHSTSSERRQNLQKRPDNKHLSSSQSHRSDPNSESLYFEDEDGFQELNENGNAKDENIQQKLSSKVLDDLPENSPINIVQTPIPITTSVPKRAKSQKKKALAAALATAQEYSEISMEQKKLQEALSKAAGKKNKTPVQLDLGDMLAALEKQQQAMKARQITNTRPLSYTVVTAASFHTKDSTNRKPLTKSQPCLTSFNSVDIASSKAKKGKEKEIAKLKRPTALKKVILKEREEKKGRLTVDHNLLGSEEPTEMHLDFIDDLPQEIVSQEDTGLSMPSDTSLSPASQNSPYCMTPVSQGSPASSGIGSPMASSTITKIHSKRFREYCNQVLCKEIDECVTLLLQELVSFQERIYQKDPVRAKARRRLVMGLREVTKHMKLNKIKCVIISPNCEKIQSKGGLDEALYNVIAMAREQEIPFVFALGRKALGRCVNKLVPVSVVGIFNYFGAESLFNKLVELTEEARKAYKDMVAAMEQEQAEEALKNVKKVPHHMGHSRNPSAASAISFCSVISEPISEVNEKEYETNWRNMVETSDGLEASENEKEVSCKHSTSEKPSKLPFDTPPIGKQPSLVATGSTTSATSAGKSTASDKEEVKPDDLEWASQQSTETGSLDGSCRDLLNSSITSTTSTLVPGMLEEEEDEDEEEEEDYTHEPISVEVQLNSRIESWVSETQRTMETLQLGKTLNGSEEDNVEQSGEEEAEAPEVLEPGMDSEAWTADQQASPGQQKSSNCSSLNKEHSDSNYTTQTT [SECISBP2L]”, the “solubility change mitosis (log2)” value in data set [1] turned out to be 0.0796. Also, the thermal stability score worked out at 1.54 in data set [2] (setting [4]) and 2.5 in data set [2] (cell cycle stage: mitosis). Also, the “solubility in G1/S (log2)” value in data set [3] is -0.226.

Regarding “MEEGAPRQPGPSQWPPEDEKEVIRRAIQKELKIKEGVENLRRVATDRRHLGHVQQLLRSSNRRLEQLHGELRELHARILLPGPGPGPAEPVASGPRPWAEQLRARHLEALRRQLHVELKVKQGAENMTHTCASGTPKERKLLAAAQQMLRDSQLKVALLRMKISSLEASGSPEPGPELLAEELQHRLHVEAAVAEGAKNVVKLLSSRRTQDRKALAEAQAQLQESSQKLDLLRLALEQLLEQLPPAHPLRSRVTRELRAAVPGYPQPSGTPVKPTALTGTLQVRLLGCEQLLTAVPGRSPAAALASSPSEGWLRTKAKHQRGRGELASEVLAVLKVDNRVVGQTGWGQVAEQSWDQTFVIPLERARELEIGVHWRDWRQLCGVAFLRLEDFLDNACHQLSLSLVPQGLLFAQVTFCDPVIERRPRLQRQERIFSKRRGQDFLRASQMNLGMAAWGRLVMNLLPPCSSPSTISPPKGCPRTPTTLREASDPATPSNFLPKKTPLGEEMTPPPKPPRLYLPQEPTSEETPRTKRPHMEPRTRRGPSPPASPTRKPPRLQDFRCLAVLGRGHFGKVLLVQFKGTGKYYAIKALKKQEVLSRDEIESLYCEKRILEAVGCTGHPFLLSLLACFQTSSHACFVTEFVPGGDLMMQIHEDVFPEPQARFYVACVVLGLQFLHEKKIIYRDLKLDNLLLDAQGFLKIADFGLCKEGIGFGDRTSTFCGTPEFLAPEVLTQEAYTRAVDWWGLGVLLYEMLVGECPFPGDTEEEVFDCIVNMDAPYPGFLSVQGLEFIQKLLQKCPEKRLGAGEQDAEEIKVQPFFRTTNWQALLARTIQPPFVPTLCGPADLRYFEGEFTGLPPALTPPAPHSLLTARQQAAFRDFDFVSERFLEP [PKN3]”, in data set [1], the “solubility change mitosis (log2)” value amounted to 0.0781. In addition, the thermal stability score was -0.36 in data set [2] (setting [4]) and -0.411 in data set [2] (cell cycle stage: mitosis). In addition, the “solubility in G1/S (log2)” value in data set [3] was -0.177.

For the sequence “MEGLLTRCRALPALATCSRQLSGYVPCRFHHCAPRRGRRLLLSRVFQPQNLREDRVLSLQDKSDDLTCKSQRLMLQVGLIYPASPGCYHLLPYTVRAMEKLVRVIDQEMQAIGGQKVNMPSLSPAELWQATNRWDLMGKELLRLRDRHGKEYCLGPTHEEAITALIASQKKLSYKQLPFLLYQVTRKFRDEPRPRFGLLRGREFYMKDMYTFDSSPEAAQQTYSLVCDAYCSLFNKLGLPFVKVQADVGTIGGTVSHEFQLPVDIGEDRLAICPRCSFSANMETLDLSQMNCPACQGPLTKTKGIEVGHTFYLGTKYSSIFNAQFTNVCGKPTLAEMGCYGLGVTRILAAAIEVLSTEDCVRWPSLLAPYQACLIPPKKGSKEQAASELIGQLYDHITEAVPQLHGEVLLDDRTHLTIGNRLKDANKFGYPFVIIAGKRALEDPAHFEVWCQNTGEVAFLTKDGVMDLLTPVQTV [PARS2]”, the “solubility change mitosis (log2)” value in data set [1] is -0.176. Also, the thermal stability score is -2.04 in data set [2] (setting [4]) and -2.68 in data set [2] (cell cycle stage: mitosis). Also, in data set [3], the “solubility in G1/S (log2)” value was -0.0434.

As to “MFHCIPLWRCNRHVESIDKRHCSLVYVPEEIYRYARSLEELLLDANQLRELPEQFFQLVKLRKLGLSDNEIQRLPPEIANFMQLVELDVSRNEIPEIPESISFCKALQVADFSGNPLTRLPESFPELQNLTCLSVNDISLQSLPENIGNLYNLASLELRENLLTYLPDSLTQLRRLEELDLGNNEIYNLPESIGALLHLKDLWLDGNQLSELPQEIGNLKNLLCLDVSENRLERLPEEISGLTSLTDLVISQNLLETIPDGIGKLKKLSILKVDQNRLTQLPEAVGECESLTELVLTENQLLTLPKSIGKLKKLSNLNADRNKLVSLPKEIGGCCSLTVFCVRDNRLTRIPAEVSQATELHVLDVAGNRLLHLPLSLTALKLKALWLSDNQSQPLLTFQTDTDYTTGEKILTCVLLPQLPSEPTCQENLPRCGALENLVNDVSDEAWNERAVNRVSAIRFVEDEKDEEDNETRTLLRRATPHPGELKHMKKTVENLRNDMNAAKGLDSNKNEVNHAIDRVTTSV [LRRC1]”, the “solubility change mitosis (log2)” value in data set [1] is -0.136. For the same sequence, the thermal stability score in data set [2] (setting [4]) was -0.136; in data set [2] (cell cycle stage: mitosis), -0.881. The “solubility in G1/S (log2)” value in data set [3] is -0.0636.
